Results reported in US20030064482A1.
Each block holds one substance with its values, some of them ahead of it.

How the values were obtained:
GIT mucin [1] = test: specificity/enzyme activity assay, GIT mucin-coated plate (negative control), substrate in PBS pH 7.2; supernatant diluted 1:2
GIT mucin [2] = test: specificity/enzyme activity assay, GIT mucin-coated plate (negative control), substrate in PBS pH 7.2; supernatant diluted 1:16
[3] = molecular target: CEA (carcinoembryonic antigen) (UniProt P06731); test: specificity/enzyme activity assay, CEA-coated plate, substrate in PBS pH 7.2; supernatant diluted 1:2
GIT mucin [4] = test: specificity/enzyme activity assay, GIT mucin-coated plate (negative control), substrate in PBS pH 7.2; supernatant diluted 1:8
[5] = molecular target: CEA (carcinoembryonic antigen) (UniProt P06731); test: specificity/enzyme activity assay, CEA-coated plate, substrate in 0.2 M sodium acetate buffer + 0.01% BSA pH 5; supernatant diluted 1:32
[6] = molecular target: CEA (carcinoembryonic antigen) (UniProt P06731); test: specificity/enzyme activity assay, CEA-coated plate, substrate in 0.2 M sodium acetate buffer + 0.01% BSA pH 5; supernatant diluted 1:64
[7] = molecular target: CEA (carcinoembryonic antigen) (UniProt P06731); test: specificity/enzyme activity assay, CEA-coated plate, substrate in PBS pH 7.2; supernatant diluted 1:64
[8] = molecular target: CEA (carcinoembryonic antigen) (UniProt P06731); test: specificity/enzyme activity assay, CEA-coated plate, substrate in PBS pH 7.2; supernatant concentrated
GIT mucin [9] = test: specificity/enzyme activity assay, GIT mucin-coated plate (negative control), substrate in PBS pH 7.2; supernatant diluted 1:64
[10] = molecular target: CEA (carcinoembryonic antigen) (UniProt P06731); test: specificity/enzyme activity assay, CEA-coated plate, substrate in PBS pH 7.2; supernatant diluted 1:32
[11] = molecular target: CEA (carcinoembryonic antigen) (UniProt P06731); test: specificity/enzyme activity assay, CEA-coated plate, substrate in 0.2 M sodium acetate buffer + 0.01% BSA pH 5; supernatant diluted 1:16
[12] = molecular target: CEA (carcinoembryonic antigen) (UniProt P06731); test: specificity/enzyme activity assay, CEA-coated plate, substrate in PBS pH 7.2; supernatant diluted 1:8
[13] = molecular target: CEA (carcinoembryonic antigen) (UniProt P06731); test: specificity/enzyme activity assay, CEA-coated plate, substrate in 0.2 M sodium acetate buffer + 0.01% BSA pH 5; supernatant concentrated
[14] = molecular target: CEA (carcinoembryonic antigen) (UniProt P06731); test: specificity/enzyme activity assay, CEA-coated plate, substrate in 0.2 M sodium acetate buffer + 0.01% BSA pH 5; supernatant diluted 1:2
[15] = molecular target: CEA (carcinoembryonic antigen) (UniProt P06731); test: specificity/enzyme activity assay, CEA-coated plate, substrate in 0.2 M sodium acetate buffer + 0.01% BSA pH 5; supernatant diluted 1:8
[16] = molecular target: CEA (carcinoembryonic antigen) (UniProt P06731); test: specificity/enzyme activity assay, CEA-coated plate, substrate in PBS pH 7.2; supernatant diluted 1:128
[17] = molecular target: CEA (carcinoembryonic antigen) (UniProt P06731); test: specificity/enzyme activity assay, CEA-coated plate, substrate in 0.2 M sodium acetate buffer + 0.01% BSA pH 5; supernatant diluted 1:128
[18] = molecular target: CEA (carcinoembryonic antigen) (UniProt P06731); test: specificity/enzyme activity assay, CEA-coated plate, substrate in PBS pH 7.2; supernatant diluted 1:16
GIT mucin [19] = test: specificity/enzyme activity assay, GIT mucin-coated plate (negative control), substrate in PBS pH 7.2; supernatant concentrated
GIT mucin [20] = test: specificity/enzyme activity assay, GIT mucin-coated plate (negative control), substrate in PBS pH 7.2; supernatant diluted 1:128
GIT mucin [21] = test: specificity/enzyme activity assay, GIT mucin-coated plate (negative control), substrate in PBS pH 7.2; supernatant diluted 1:32
GIT mucin [22] = test: specificity/enzyme activity assay, GIT mucin-coated plate (negative control), substrate in PBS pH 7.2; supernatant diluted 1:4
[23] = molecular target: CEA (carcinoembryonic antigen) (UniProt P06731); test: specificity/enzyme activity assay, CEA-coated plate, substrate in 0.2 M sodium acetate buffer + 0.01% BSA pH 5; supernatant diluted 1:4
[24] = molecular target: CEA (carcinoembryonic antigen) (UniProt P06731); test: competitive ELISA on CEA-coated plates; competitor murine MAb BW 431/26 at 5 ng/ml, detected with goat anti-mouse Ig-alkaline phosphatase
[25] = molecular target: CEA (carcinoembryonic antigen) (UniProt P06731); test: specificity/enzyme activity assay, CEA-coated plate, substrate in PBS pH 7.2; supernatant diluted 1:4

Chain of UniProt P06731 (P06731 35-685 limits assumed): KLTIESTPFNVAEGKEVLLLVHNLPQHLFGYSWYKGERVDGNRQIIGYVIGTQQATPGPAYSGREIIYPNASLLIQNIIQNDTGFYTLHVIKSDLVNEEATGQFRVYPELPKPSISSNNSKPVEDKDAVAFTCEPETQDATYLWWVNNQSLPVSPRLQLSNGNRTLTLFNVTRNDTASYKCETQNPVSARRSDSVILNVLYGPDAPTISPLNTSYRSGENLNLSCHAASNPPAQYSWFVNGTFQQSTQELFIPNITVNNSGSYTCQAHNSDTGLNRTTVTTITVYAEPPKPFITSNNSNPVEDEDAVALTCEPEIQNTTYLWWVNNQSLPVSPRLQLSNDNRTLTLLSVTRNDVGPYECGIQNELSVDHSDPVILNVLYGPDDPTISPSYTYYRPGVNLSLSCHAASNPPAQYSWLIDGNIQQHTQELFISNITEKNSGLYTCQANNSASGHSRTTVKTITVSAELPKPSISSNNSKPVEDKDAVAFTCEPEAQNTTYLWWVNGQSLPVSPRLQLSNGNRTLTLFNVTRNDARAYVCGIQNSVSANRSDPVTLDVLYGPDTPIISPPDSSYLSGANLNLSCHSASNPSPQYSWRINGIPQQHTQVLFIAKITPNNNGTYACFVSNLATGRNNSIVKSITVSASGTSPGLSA

fluorescence of 4-methylumbelliferol liberated by plate-bound fusion protein (GIT mucin [1]): 93.4
fluorescence of 4-methylumbelliferol liberated by plate-bound fusion protein (GIT mucin [2]): 53.7
fluorescence of 4-methylumbelliferol liberated by plate-bound fusion protein [3]: 2140
fluorescence of 4-methylumbelliferol liberated by plate-bound fusion protein (GIT mucin [4]): 60.7
fluorescence of 4-methylumbelliferol liberated by plate-bound fusion protein [5]: 853
fluorescence of 4-methylumbelliferol liberated by plate-bound fusion protein [6]: 425
fluorescence of 4-methylumbelliferol liberated by plate-bound fusion protein [7]: 99.3
fluorescence of 4-methylumbelliferol liberated by plate-bound fusion protein [8]: 2720
fluorescence of 4-methylumbelliferol liberated by plate-bound fusion protein (GIT mucin [9]): 48.2
fluorescence of 4-methylumbelliferol liberated by plate-bound fusion protein [10]: 168
fluorescence of 4-methylumbelliferol liberated by plate-bound fusion protein [11]: 1660
fluorescence of 4-methylumbelliferol liberated by plate-bound fusion protein [12]: 618
fluorescence of 4-methylumbelliferol liberated by plate-bound fusion protein [13]: 9120
fluorescence of 4-methylumbelliferol liberated by plate-bound fusion protein [14]: 7680
fluorescence of 4-methylumbelliferol liberated by plate-bound fusion protein [15]: 2930
fluorescence of 4-methylumbelliferol liberated by plate-bound fusion protein [16]: 57.9
fluorescence of 4-methylumbelliferol liberated by plate-bound fusion protein [17]: 192
fluorescence of 4-methylumbelliferol liberated by plate-bound fusion protein [18]: 332
fluorescence of 4-methylumbelliferol liberated by plate-bound fusion protein (GIT mucin [19]): 116
fluorescence of 4-methylumbelliferol liberated by plate-bound fusion protein (GIT mucin [20]): 47.5
fluorescence of 4-methylumbelliferol liberated by plate-bound fusion protein (GIT mucin [21]): 40.4
fluorescence of 4-methylumbelliferol liberated by plate-bound fusion protein (GIT mucin [22]): 73.4
fluorescence of 4-methylumbelliferol liberated by plate-bound fusion protein [23]: 4660
molar excess of competitor at 50% inhibition [24]: 200 molar excess
fluorescence of 4-methylumbelliferol liberated by plate-bound fusion protein [25]: 1200
Substance: 431/26 hum VH huβGlc 1H fusion protein (from UniProt P01860 1-98; P01860 99-115; P08236 23-651)

molar excess of competitor at 50% inhibition [24]: 200 molar excess
Substance: humanized MAb BW 431/26 (antibody)
